Experimental data taken from patent publication US20240325562A1 (published 2024).

B1: SP01P (VHH)
VHH: EVQLVESGGGLAQAGGSLRLSCVASGNIDSANGMAWYRQAPGKQRELVAHITSGTSYYVASVEGRFTISRANAKDTWYLQMNSLKPEDTGVYYCFPIGLSAHWSQGTQVTVSS
B2: SP27P (VHH)
VHH: EVQLVESGGGLVQIGDSLRLSCAASGGTFNRYGMGWFRQAPGKEREFVAAIRWDGVDTNYADFVKGRFTISRYNAKNTAYLQMNSLKPEDTAVYYCAADRRGLYTKHAHRYDYWGQGTQVTVSS
B3: SP36P (VHH)
VHH: EVQLVESGGGLVQAGGSLRLSCTPSITTAGTTIMAWFRQAPGNEREFVAAIWGSKTAYGDSMKGRLTISRDNVRDNGQKTVFLQMNNLQLQDTATYYCAASSGGYVHSSTSYEIWGRGTQVTVSS
B4: SP02P (VHH)
VHH: EVQLVESGGGLVQAGGSLRLSCAASESISSIEQMGWFRQAPGKQRALVAINTYGGRTVYTNSVEGRFTMSRDSAKNMVYLQMTSLEPEDTAVYYCYAQTTAWRGGVWGQGTQVTVSS
B5: SP20P (VHH)
VHH: EVQLVESGGGLVQAGGSLRLSCVISGRTSPTYPMGWFRQSPGNEREFVASINWSGGWRNYADSVKDRFTISRDDAKNTVYLQMNSLKPEDTAVYYCARGQYSSGTPVYAHEYAYWGQGTQVTVSS
B6: SP28P (VHH)
VHH: EVQLVESGGGLVQAGGSLRLSCAASGSIVSFNGINWYRQAPGKQREWVGGITQGGNTMYADSVRGRFTISRDNTKNTMYLQMNSLKPEDTAVYYCRRPPVASWGQGTQVTVSS
B7: SP31P (VHH)
VHH: EVQLVESGGGLVQAGGSLRLSCAASRGTFGTYIMGWFRQAPGKEREFVAAISWRGANTYYGYSVKGRFTISRDNAKNTMYLQMADLKPEDTADYYCGVHLNGTPYYYASGYRYWGQGTQVTVSS
B8: SP26P (VHH)
VHH: EVQLVESGGGLVQAGGSLRLSCAASGRSFSSSVMGWFRQTPGKEREFVAATRWTAASTHYADSVKGRFTISRDHAENAVFLQMNSLKPEDTAVYYCAAGNYLDTAQYRYNYWGQGTQVTVSS
modifications: In the competition assay the reporter copy carried IRDye800 on the C-terminal cysteine, which is not in the letters.
B9: SP30P (VHH)
VHH: EVQLVESGGGLVQAGGSLRLSCAASRGTFGTDIMGWFRQAPGKEREFVAAISWRGANTYYGYSVKGRFTISRDNAKNTMYLQMADLKPEDTADYYCGVHLNGTPYYYASGYRYWGQGTQVTVSS
B10: SP13P (VHH)
VHH: EVQLVESGGGLVQPGGSLRLSCAASESIFSINYMAWYRQAPGKQRELVAFSIDGSSTNYVDSVRGRFTASRDNAENTLYLQMNSLKPEDTAVYYCYAQGNTWAAGVWGQGTQVTVSS
B11: SP14P (VHH)
VHH: EVQLVESGGGLVQAGDSLRLSCVVSGLTFSRYGMGWFRQATGKEREFVGGISVGSSGTMYPNSVKGRFTISRDNAKSTVYLQMNSLKPEDTAVYFCAAIDQGSFVQQRDYRYWGQGTQVTVSS
B12: SP05P (VHH)
VHH: EVQLVESGGGLVQAGGSLRLSCAASGRTSFSGYAMAWFRQAPGKERDFVASITWSYGYTYYTDSAQGRFTISRDSAKNTVYLEMNSLKPEDTAVYYCAADPKASRFRILREYAYWGQGTQVTVSS

Columns and labels:
[1] = target: full-length human PDGFRB on cells (human, UniProt P09619 33-1106); assay: cell binding; SCC-hPDGFRβ cells
[2] = target: T1, recombinant hPDGFRB ectodomain (human, UniProt P09619 33-532); assay: binding to immobilized ectodomain
T1 chain: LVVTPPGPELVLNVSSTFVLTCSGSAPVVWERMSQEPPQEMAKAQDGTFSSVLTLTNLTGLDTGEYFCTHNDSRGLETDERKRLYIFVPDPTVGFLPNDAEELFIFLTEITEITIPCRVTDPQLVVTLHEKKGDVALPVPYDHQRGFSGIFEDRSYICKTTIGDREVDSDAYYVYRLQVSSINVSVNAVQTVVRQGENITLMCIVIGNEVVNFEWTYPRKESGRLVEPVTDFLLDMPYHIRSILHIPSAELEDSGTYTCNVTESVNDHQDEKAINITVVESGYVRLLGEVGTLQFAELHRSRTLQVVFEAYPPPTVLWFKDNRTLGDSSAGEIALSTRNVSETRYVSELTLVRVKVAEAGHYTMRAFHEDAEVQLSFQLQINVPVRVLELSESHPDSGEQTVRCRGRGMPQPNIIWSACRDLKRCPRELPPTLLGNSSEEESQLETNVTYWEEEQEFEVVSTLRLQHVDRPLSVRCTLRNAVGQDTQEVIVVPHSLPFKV

[3] = target: T2, recombinant rPDGFRB ectodomain (rat, UniProt Q05030 32-531); assay: binding to immobilized ectodomain
T2 chain: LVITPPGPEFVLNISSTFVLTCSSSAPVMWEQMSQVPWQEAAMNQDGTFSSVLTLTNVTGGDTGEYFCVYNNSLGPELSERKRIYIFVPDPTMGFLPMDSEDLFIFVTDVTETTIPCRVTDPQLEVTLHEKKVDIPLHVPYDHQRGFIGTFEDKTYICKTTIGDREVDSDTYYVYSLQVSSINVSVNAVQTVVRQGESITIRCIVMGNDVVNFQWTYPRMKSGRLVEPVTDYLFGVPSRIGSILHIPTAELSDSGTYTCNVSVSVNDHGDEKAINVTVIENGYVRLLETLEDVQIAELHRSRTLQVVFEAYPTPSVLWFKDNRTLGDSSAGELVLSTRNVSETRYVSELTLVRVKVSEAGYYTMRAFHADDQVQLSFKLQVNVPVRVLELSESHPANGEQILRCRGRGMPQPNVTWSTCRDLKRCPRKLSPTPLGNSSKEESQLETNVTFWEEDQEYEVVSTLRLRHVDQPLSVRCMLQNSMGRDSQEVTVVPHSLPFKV

[4] = target: T3, full-length rat PDGFRB on cells (rat, UniProt Q05030 32-1097); assay: cell binding; SCC-rPDGFRβ cells
T3 chain: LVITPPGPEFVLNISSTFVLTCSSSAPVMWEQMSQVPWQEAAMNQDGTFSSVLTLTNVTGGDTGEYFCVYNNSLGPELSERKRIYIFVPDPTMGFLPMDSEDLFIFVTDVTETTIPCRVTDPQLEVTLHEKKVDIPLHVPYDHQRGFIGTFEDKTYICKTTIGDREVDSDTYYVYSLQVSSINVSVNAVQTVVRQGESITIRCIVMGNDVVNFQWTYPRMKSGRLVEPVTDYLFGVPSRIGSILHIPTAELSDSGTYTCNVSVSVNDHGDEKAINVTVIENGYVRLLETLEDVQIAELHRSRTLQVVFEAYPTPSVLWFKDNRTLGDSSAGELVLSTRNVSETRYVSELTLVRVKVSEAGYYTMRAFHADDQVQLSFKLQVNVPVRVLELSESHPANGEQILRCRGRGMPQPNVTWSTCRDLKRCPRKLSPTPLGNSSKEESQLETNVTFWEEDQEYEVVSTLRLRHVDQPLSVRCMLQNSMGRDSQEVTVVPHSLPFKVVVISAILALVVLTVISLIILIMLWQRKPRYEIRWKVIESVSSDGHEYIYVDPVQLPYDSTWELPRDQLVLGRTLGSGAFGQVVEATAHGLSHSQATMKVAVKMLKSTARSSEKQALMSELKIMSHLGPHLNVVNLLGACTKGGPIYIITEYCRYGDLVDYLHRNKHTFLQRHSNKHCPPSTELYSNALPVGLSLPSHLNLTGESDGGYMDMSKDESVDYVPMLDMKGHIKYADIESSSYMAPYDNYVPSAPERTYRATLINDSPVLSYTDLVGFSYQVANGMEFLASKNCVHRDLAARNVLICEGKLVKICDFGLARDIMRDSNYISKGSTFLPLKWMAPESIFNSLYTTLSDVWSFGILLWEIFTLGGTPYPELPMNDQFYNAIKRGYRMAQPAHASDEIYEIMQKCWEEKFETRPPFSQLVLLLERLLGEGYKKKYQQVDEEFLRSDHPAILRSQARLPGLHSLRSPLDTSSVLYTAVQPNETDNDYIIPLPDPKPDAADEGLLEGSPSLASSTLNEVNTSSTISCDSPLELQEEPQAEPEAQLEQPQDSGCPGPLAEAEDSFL

Binder	Kd [1] [nM]	Kd [2] [nM]	Kd [3] [nM]	Kd [4] [nM]
B1	7.8	20.4		
B2			25.5	
B3			31	76.6
B4		6.2		
B5		3.8		
B6			6	0.5
B7			276	31.8
B8				0.3
B9			12.2	
B10	10.4	9.3		
B11		8.6		
B12		9.2		
